Earlier results in publication PMC2928749.

Target: hHR23B Ubl (Homo sapiens) (UniProt P54727)
Sequence (P54727 1-79): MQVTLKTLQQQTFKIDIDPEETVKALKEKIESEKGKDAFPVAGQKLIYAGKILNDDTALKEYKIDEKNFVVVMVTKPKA

Chain of Ataxin-3 Josephin (P54252 1-183): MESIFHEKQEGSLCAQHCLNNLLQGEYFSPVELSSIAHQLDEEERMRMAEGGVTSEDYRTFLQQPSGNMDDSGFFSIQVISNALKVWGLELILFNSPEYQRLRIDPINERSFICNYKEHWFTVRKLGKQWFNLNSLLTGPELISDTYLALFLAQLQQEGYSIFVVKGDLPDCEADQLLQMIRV

Kd: 12 µM
Substance: Ataxin-3 Josephin (from UniProt P54252)
